From IntAct's records for PubMed 21866104 come the findings set out here.

B1: Golgi to ER traffic protein 1 (Saccharomyces cerevisiae), P53192 (parent)
chain: MHWAAAVAIFFIVVTKFLQYTNKYHEKWISKFAPGNELSKKYLAKVKERHELKEFNNSISAQDNYAKWTKNNRKLDSLDKEINNLKDEIQSENKAFQAHLHKLRLLALTVPFFVFKIMYGKTPVYKLSSSTSTLFPTFVSGVWSQGWLYVLLHPLRTISQKWHIMEGKFGASKFDDMALQSVSLGIWVWALMNVINGVEFIVKQLFLTPKMEAPASVETQEEKALDAVDDAIILD
partner: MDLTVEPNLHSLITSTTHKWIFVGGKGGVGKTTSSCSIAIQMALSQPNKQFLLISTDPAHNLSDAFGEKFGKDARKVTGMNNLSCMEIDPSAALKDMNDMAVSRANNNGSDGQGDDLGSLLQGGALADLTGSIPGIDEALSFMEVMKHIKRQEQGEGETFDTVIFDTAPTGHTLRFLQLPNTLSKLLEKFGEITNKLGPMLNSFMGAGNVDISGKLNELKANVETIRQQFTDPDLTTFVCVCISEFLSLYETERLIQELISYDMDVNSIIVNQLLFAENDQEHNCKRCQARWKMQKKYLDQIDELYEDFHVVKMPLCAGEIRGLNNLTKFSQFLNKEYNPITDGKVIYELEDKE
B2: Golgi to ER traffic protein 2 (Saccharomyces cerevisiae), P40056 (parent)
chain: MSELTEAEKRRLLRERRQKKFSNGGASSRLNKITGQASSHLNAESPLDAPSAAKTTPPASVHSATPDIKEDSNVAPQLDLLKQLAAMQGQGTGKSTPQDSSTPDLLSLLSSMNTGMPSAEGTPSFGQAAPAAPINQAALDYHDYLLNRLKAWTILVKWVFFLLPYLYLITRPNSSVWPAYAFTQSAWFAPLRNPSNFTRIFATFEFLSISIYYQLLKNVEHKSKIKNLQDTNKLVKLVSLVPEGVIPVANLKGKLITLLQYWDLLSMLITDISFVLIVLGLLTYL
partner: B1 partner

In the first assay the parent is B1. As to conditions: with get3_yeast GET3, Q12154.
For the variant MHWAAAVAIFFIVVTKFLQYTNKYHEKWISKFAPGNELSKKYLAKVKERHELKEFNNSISAQDNYAKWTKNNEKLDSLDKEINNLKDEIQSENKAFQAHLHKLRLLALTVPFFVFKIMYGKTPVYKLSSSTSTLFPTFVSGVWSQGWLYVLLHPLRTISQKWHIMEGKFGASKFDDMALQSVSLGIWVWALMNVINGVEFIVKQLFLTPKMEAPASVETQEEKALDAVDDAIILD [R73E], the “effect of a mutation on the interaction” value is given as “disrupting interaction”.

A further assay covers variants of B2. As to conditions: with get3_yeast GET3, Q12154.
On to MSELTEAEKRRLLREREQKKFSNGGASSRLNKITGQASSHLNAESPLDAPSAAKTTPPASVHSATPDIKEDSNVAPQLDLLKQLAAMQGQGTGKSTPQDSSTPDLLSLLSSMNTGMPSAEGTPSFGQAAPAAPINQAALDYHDYLLNRLKAWTILVKWVFFLLPYLYLITRPNSSVWPAYAFTQSAWFAPLRNPSNFTRIFATFEFLSISIYYQLLKNVEHKSKIKNLQDTNKLVKLVSLVPEGVIPVANLKGKLITLLQYWDLLSMLITDISFVLIVLGLLTYL [R17E], for which the “effect of a mutation on the interaction” value is listed as “disrupting interaction”.
